Biological target: T1, Smc4 (S. cerevisiae condensin subunit) (S. cerevisiae, UniProt Q12267 1-1418)
T1 sequence: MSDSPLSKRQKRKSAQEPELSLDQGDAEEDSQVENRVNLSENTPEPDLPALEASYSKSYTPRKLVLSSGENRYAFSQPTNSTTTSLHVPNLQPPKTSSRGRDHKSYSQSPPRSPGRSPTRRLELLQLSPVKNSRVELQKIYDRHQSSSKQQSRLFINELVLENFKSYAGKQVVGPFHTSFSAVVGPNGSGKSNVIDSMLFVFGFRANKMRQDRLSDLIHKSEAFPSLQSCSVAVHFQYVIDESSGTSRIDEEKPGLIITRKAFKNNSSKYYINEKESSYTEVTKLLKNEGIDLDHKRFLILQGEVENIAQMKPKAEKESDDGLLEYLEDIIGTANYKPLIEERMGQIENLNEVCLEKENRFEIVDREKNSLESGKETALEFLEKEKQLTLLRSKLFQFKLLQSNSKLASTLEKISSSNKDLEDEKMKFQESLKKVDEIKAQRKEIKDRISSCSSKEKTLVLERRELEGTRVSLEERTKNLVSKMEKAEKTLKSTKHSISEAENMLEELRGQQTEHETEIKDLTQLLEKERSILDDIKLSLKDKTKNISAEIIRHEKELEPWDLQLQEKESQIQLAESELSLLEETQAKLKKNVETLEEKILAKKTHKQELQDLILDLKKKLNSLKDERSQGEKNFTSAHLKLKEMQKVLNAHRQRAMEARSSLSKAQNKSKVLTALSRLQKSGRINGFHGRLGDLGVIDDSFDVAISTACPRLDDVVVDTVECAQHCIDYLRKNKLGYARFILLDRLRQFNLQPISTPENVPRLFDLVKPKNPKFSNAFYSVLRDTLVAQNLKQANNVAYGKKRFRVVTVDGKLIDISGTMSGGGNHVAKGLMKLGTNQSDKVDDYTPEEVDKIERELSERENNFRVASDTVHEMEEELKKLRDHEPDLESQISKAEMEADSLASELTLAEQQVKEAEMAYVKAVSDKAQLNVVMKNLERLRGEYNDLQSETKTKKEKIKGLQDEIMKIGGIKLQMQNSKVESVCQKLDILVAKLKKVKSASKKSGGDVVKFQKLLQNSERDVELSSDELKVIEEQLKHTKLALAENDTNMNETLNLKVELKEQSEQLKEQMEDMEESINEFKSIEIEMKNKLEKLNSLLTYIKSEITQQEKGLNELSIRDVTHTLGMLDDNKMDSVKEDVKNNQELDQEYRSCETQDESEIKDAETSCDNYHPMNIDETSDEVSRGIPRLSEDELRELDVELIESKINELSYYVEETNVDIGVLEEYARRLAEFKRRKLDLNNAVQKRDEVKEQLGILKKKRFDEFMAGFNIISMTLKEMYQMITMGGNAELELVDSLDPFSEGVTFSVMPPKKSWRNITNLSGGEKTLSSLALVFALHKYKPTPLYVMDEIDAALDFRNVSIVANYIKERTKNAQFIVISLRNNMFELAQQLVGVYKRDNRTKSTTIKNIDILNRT
Assay: cryo-EM structure

- binding result: binds
B1: Ycs4 (S. cerevisiae condensin HEAT-repeat subunit) (natural protein)
chain: MSGFSLSEYLTKFQTTDRESYPRLQDPSRELNVIIDQLAVSPEQIDASPDSLEALIDLCHDFPHLTPKLQTQLSYLISSSLSNLSKDIKANLSSNVNFTEIGGLIPQWKRHLEEYGYLIQVLLTFLQDELHKVSSQSTNLNRSAKNSKNDSANVELFKRDCNQMENLLESITKLLEINLSKIFQTTPEKDLFIGLFTRPLFVLLEIEPVTKVSSLKMFIQRILAMCVKNHGQSSSIQSSLMTNLTYFLHLSVFNAELLKLLNDEYNYPQLTEDILKEISTRVFNAKDTTGPKAISNFLIKLSELSPGIMLRQMNLVITLLNNSSITLRCSVVEACGNIVAELAQDPQTMEHYKQQIAVLIELLEERFQDSNPYVRTKAIQGCSKICDLSSKFNKSKAKFTSLAVRSLQDRSSLVRRNSVKLLSKLLLKHPFKAIHGSQLRLSEWEEYLKGSESQLNSTLKKVESQETLNDTIERSLIEEEVEQDEGQCRTELEGSFNKSAELSRIENEVENINATNTSVLMKLKLMIVYYKDAISFIKEIHKSIELISNLLFSKNRNEVLESMDFLVLADAFDIELSEFGIKKMLHLVWMKGTNDEGTSISVHLIECYKQLFLTAPDSCNMQEKAAHIAKNLINLSIGASIADLASLEQLLGMMYEQKLIDQHVINILWAIYNSASKASMQKEQNVNNRDSEKGFSKEQIHGSIIILGMLSLADNEIALKGLESLLNIGLGAVGLKDLTLCRYSCLALERMVPKRSTIITKAINQELEDVAVKKLYAIIINYTKDNEYYPMCEQALSALFTISSKPDILATDLIREKTMMTFGKPEEEDSILSLEQSSRVVSLSQLLFIVGQVAIKTLVYLEKCEAEFKKRKIEAETRNGKVKNQGADVTNTTQDNGGDKELEMIGGTNEDDFTDAIQFVKENELLFGEKSILGKFCPIVEEIVSNSSRFSDPMLQRTATLCLEKLMCLSSKYCEKSLPLLITVMEKSPDPTIRSNAVLGLGDMAVCFNNLVDENTDYLYRRLHDENLMVQRTCLMTVTFLILAGQVKVKGQLGEMAKCLDNPDQGISDMCRLFFTELASKDNAIYNGFIDIFSNLSSDDLLGKESFKKIIKFLLTFIDKERHQKQLNEKLVGRLRKCETQKQWDDIAFVLNNLPYKNEDVTALLEQGFKVVSAKE
